Measured values: the supplement of paper PMC9112550, “Optimization of the antimicrobial peptide Bac7 by deep mutational scanning” (BMC Biology, 2022)

Tested on: Escherichia coli TOP10
Test: shrunken log2 fold change of peptide-encoding DNA abundance (4.5 h post-induction vs induction); higher = less antimicrobial activity (less host growth inhibition)
Conditions: time post-induction: 4.5 h; library: site-saturation at positions 5, 18, 19, 20
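Also: peptides expressed intracellularly from a pBAD plasmid library in pooled LB shake-flask culture, induced with 0.3% L-arabinose, DNA abundance read by NGS, three biological replicates, DESeq2 with apeglm shrinkage.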

Sequence | shrunken log2 fold change
RRIRWRPPRLPRPRPRPSKGPRP | 0.0944
RRIRWRPPRLPRPRPRPYIAPRP | -0.825
RRIRWRPPRLPRPRPRPIMVPRP | -0.0215
RRIRWRPPRLPRPRPRPYATPRP | 0.289
RRIRIRPPRLPRPRPRPHVYPRP | -0.112
RRIRVRPPRLPRPRPRPDEYPRP | 0.0327
RRIRWRPPRLPRPRPRPNWHPRP | -0.00322
RRIRYRPPRLPRPRPRPICGPRP | -0.359
RRIRMRPPRLPRPRPRPALGPRP | 0.625
RRIRERPPRLPRPRPRPWETPRP | 0.11
RRIRNRPPRLPRPRPRPHRKPRP | 0.0299
RRIRIRPPRLPRPRPRPMHNPRP | -0.332
RRIRTRPPRLPRPRPRPEVMPRP | 0.114
RRIRGRPPRLPRPRPRPFQAPRP | 0.112
RRIRSRPPRLPRPRPRPYYCPRP | 2.2
RRIRSRPPRLPRPRPRPKIHPRP | -0.0501
RRIRHRPPRLPRPRPRPHLSPRP | -0.43
RRIRYRPPRLPRPRPRPQWDPRP | -0.842
RRIRPRPPRLPRPRPRPGTIPRP | -0.171
RRIRQRPPRLPRPRPRPFISPRP | -0.0195
RRIRIRPPRLPRPRPRPPSFPRP | -0.213
RRIRKRPPRLPRPRPRPPDAPRP | 1.35

Sequence | shrunken log2 fold change
RRIRPRPPRLPRPRPRPHPVPRP | 0.151
RRIRSRPPRLPRPRPRPYHGPRP | -0.397
RRIRQRPPRLPRPRPRPELYPRP | -0.113
RRIRCRPPRLPRPRPRPALCPRP | 0.185
RRIRLRPPRLPRPRPRPLISPRP | -0.506
RRIRGRPPRLPRPRPRPVQAPRP | 0.891
RRIRKRPPRLPRPRPRPPKAPRP | 0.609
RRIRWRPPRLPRPRPRPTFIPRP | -0.417
RRIRSRPPRLPRPRPRPKQLPRP | 0.0372
RRIRGRPPRLPRPRPRPWDHPRP | 0.0661
RRIRTRPPRLPRPRPRPINRPRP | 0.028
RRIRPRPPRLPRPRPRPRMFPRP | 0.0598
RRIRLRPPRLPRPRPRPPNHPRP | -0.246
RRIRHRPPRLPRPRPRPISVPRP | -0.00149
RRIRYRPPRLPRPRPRPAVQPRP | -0.505
RRIRGRPPRLPRPRPRPPDAPRP | 1.45
RRIRMRPPRLPRPRPRPIGRPRP | -0.00776
RRIRIRPPRLPRPRPRPQFTPRP | -0.986
RRIRNRPPRLPRPRPRPWVVPRP | 0.0152
RRIRRRPPRLPRPRPRPKHHPRP | 0.346
RRIRTRPPRLPRPRPRPPHFPRP | 0.7
RRIRVRPPRLPRPRPRPPAPPRP | 0.794

Sequence | shrunken log2 fold change
RRIRTRPPRLPRPRPRPYDCPRP | -0.304
RRIRNRPPRLPRPRPRPQSLPRP | -0.139
RRIRIRPPRLPRPRPRPLHEPRP | -0.191
RRIRFRPPRLPRPRPRPGQIPRP | -0.133
RRIRHRPPRLPRPRPRPITPPRP | -0.538
RRIRLRPPRLPRPRPRPTTDPRP | -0.287
RRIRTRPPRLPRPRPRPSWFPRP | -0.343
RRIRIRPPRLPRPRPRPAHCPRP | 0.0837
RRIRERPPRLPRPRPRPKQHPRP | 0.241
RRIRSRPPRLPRPRPRPRTDPRP | 0.0755
RRIRKRPPRLPRPRPRPDPAPRP | 0.688
RRIRWRPPRLPRPRPRPQCMPRP | -0.157
RRIRKRPPRLPRPRPRPEHSPRP | 0.00628
RRIRIRPPRLPRPRPRPMRSPRP | 0.000106
RRIRIRPPRLPRPRPRPKQFPRP | -0.328
RRIRWRPPRLPRPRPRPCNQPRP | -0.78
RRIRSRPPRLPRPRPRPAHSPRP | -0.332
RRIRCRPPRLPRPRPRPKPLPRP | 0.12
RRIRQRPPRLPRPRPRPVSEPRP | -0.202
RRIRMRPPRLPRPRPRPREMPRP | 0.657
RRIRQRPPRLPRPRPRPCEHPRP | 0.0413
RRIRPRPPRLPRPRPRPYDAPRP | -0.0642

Sequence | shrunken log2 fold change
RRIRIRPPRLPRPRPRPCDCPRP | -0.0657
RRIRLRPPRLPRPRPRPISEPRP | 0.00295
RRIRVRPPRLPRPRPRPNTCPRP | -0.101
RRIRIRPPRLPRPRPRPRYVPRP | -0.45
RRIRCRPPRLPRPRPRPYLTPRP | -0.459
RRIRHRPPRLPRPRPRPQRRPRP | 0.0777
RRIRERPPRLPRPRPRPCWIPRP | -0.594
RRIRIRPPRLPRPRPRPNEAPRP | 0.135
RRIRSRPPRLPRPRPRPMGVPRP | -0.084
RRIRYRPPRLPRPRPRPAPRPRP | 0.57
RRIRPRPPRLPRPRPRPVAHPRP | 0.0324
RRIRDRPPRLPRPRPRPGCYPRP | 0.0592
RRIRTRPPRLPRPRPRPAAVPRP | -0.0116
RRIRRRPPRLPRPRPRPHHLPRP | -0.0855
RRIRKRPPRLPRPRPRPCIRPRP | -0.049
RRIRPRPPRLPRPRPRPAFAPRP | 0.374
RRIRGRPPRLPRPRPRPMQFPRP | 0.184
RRIRCRPPRLPRPRPRPHAGPRP | 0.185
RRIRPRPPRLPRPRPRPRGWPRP | 1.12
RRIRYRPPRLPRPRPRPFQEPRP | -0.152
RRIRHRPPRLPRPRPRPQKWPRP | -0.875
RRIRKRPPRLPRPRPRPTWDPRP | 0.289

Sequence | shrunken log2 fold change
RRIRVRPPRLPRPRPRPTKDPRP | -0.303
RRIRRRPPRLPRPRPRPPTDPRP | 0.709
RRIRMRPPRLPRPRPRPRHSPRP | 0.0596
RRIRVRPPRLPRPRPRPVYCPRP | -0.482
RRIRYRPPRLPRPRPRPEIVPRP | -0.00224
RRIRHRPPRLPRPRPRPVTYPRP | -0.181
RRIRCRPPRLPRPRPRPYLPPRP | -1.2
RRIRARPPRLPRPRPRPGDNPRP | 0.133
RRIRYRPPRLPRPRPRPRRVPRP | 0.00201
RRIRMRPPRLPRPRPRPRELPRP | 1.54
RRIRIRPPRLPRPRPRPMYTPRP | -0.244
RRIRKRPPRLPRPRPRPLNCPRP | -0.0221
RRIRVRPPRLPRPRPRPQYNPRP | -0.851
RRIRRRPPRLPRPRPRPMLKPRP | 0.0333
RRIRVRPPRLPRPRPRPWFQPRP | -0.139
RRIRGRPPRLPRPRPRPGCPPRP | 0.806
RRIRERPPRLPRPRPRPETKPRP | -0.231
RRIRLRPPRLPRPRPRPAACPRP | 0.267
RRIRYRPPRLPRPRPRPTSCPRP | -0.331
RRIRYRPPRLPRPRPRPTIYPRP | -0.939
RRIRDRPPRLPRPRPRPIEWPRP | 0.015
